The results in this text go back to publication PMC5942852.

The target of test [1] is CH103 (human). Put plainly: SPR; ProteOn XPR36 (Bio-Rad), GLC chip; IgG captured on amine-coupled anti-human capture antibody (Human Antibody Capture Kit), antigen as analyte; 1x HBS-EP+ pH 7.4 with BSA 1 mg/ml; equilibrium or kinetic Langmuir model. (In general: In SPR one partner is held on a chip, and binding of the other changes the refractive index at the surface.)
Test [2] deals with CH103 WT with the H2-6 residue at position 67 (E->Y) (human). Described as above.
For test [3], the target named is H2-6 position 59 mutant (Y->F) (human). The description is as above.
Test [4] has as its target H2-6 position 67 mutant (Y->E) (human). Described as above.
For test [5], the target named is CH103 (human). Nature of the test: SPR; Biacore 4000, CM5 chip; IgG captured on amine-coupled anti-human capture antibody (Human Antibody Capture Kit), antigen as analyte; 1x HBS-EP+ pH 7.4 with BSA 1 mg/ml; equilibrium or kinetic Langmuir model; apparent KD.

CH103 (human), sequence (heavy, as listed by the source, chain 1 of 2): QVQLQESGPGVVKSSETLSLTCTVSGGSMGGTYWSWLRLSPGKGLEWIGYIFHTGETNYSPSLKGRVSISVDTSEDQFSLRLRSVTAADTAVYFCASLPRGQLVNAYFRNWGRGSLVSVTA
CH103 (human), sequence (light, as listed by the source, chain 2 of 2): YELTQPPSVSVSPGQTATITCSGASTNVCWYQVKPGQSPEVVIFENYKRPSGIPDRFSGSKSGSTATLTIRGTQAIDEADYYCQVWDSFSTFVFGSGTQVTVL
CH103 WT with the H2-6 residue at position 67 (E->Y) (human), sequence (heavy, as listed by the source, chain 1 of 2): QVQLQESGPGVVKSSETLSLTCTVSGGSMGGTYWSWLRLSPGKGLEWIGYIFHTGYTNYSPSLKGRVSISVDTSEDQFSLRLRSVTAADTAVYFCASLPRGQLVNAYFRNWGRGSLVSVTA
CH103 WT with the H2-6 residue at position 67 (E->Y) (human), sequence (light, as listed by the source, chain 2 of 2): as the sequence (light, as listed by the source, chain 2 of 2) above
H2-6 position 59 mutant (Y->F) (human), sequence (heavy, as listed by the source, chain 1 of 2): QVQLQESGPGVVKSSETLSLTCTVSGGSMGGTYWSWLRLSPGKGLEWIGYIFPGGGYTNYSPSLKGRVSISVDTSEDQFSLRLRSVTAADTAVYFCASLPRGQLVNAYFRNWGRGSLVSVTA
H2-6 position 59 mutant (Y->F) (human), sequence (light, as listed by the source, chain 2 of 2): as the sequence (light, as listed by the source, chain 2 of 2) above
H2-6 position 67 mutant (Y->E) (human), sequence (heavy, as listed by the source, chain 1 of 2): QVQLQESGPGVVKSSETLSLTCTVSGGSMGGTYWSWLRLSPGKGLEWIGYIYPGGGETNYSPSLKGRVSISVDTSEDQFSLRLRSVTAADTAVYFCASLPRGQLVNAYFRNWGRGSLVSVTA
H2-6 position 67 mutant (Y->E) (human), sequence (light, as listed by the source, chain 2 of 2): as the sequence (light, as listed by the source, chain 2 of 2) above

gp120 Core Bal (domain or fragment): the Kd in the test with CH103 (human) [1] turned out to be 1100 nM; in test [2], 11.7 nM; in test [3] it was 12.8 nM; in test [4] it was 212 nM; with CH103 (human) [5], 91 nM.

Regarding gp120 Core HXB2 (domain or fragment), the Kd was 138 nM with CH103 (human) [1]; 2.3 nM in test [2]; 2.2 nM in test [3]; 30.9 nM in test [4]; 52 nM with CH103 (human) [5].
